Here are results for 34 molecules from paper PMC10786891, “Massively parallel profiling of RNA-targeting CRISPR-Cas13d”.

To fix the notation:
T1: EsCas13d, nuclease-dead (Eubacterium siraeum, UniProt B0MS50, R295A;H300A;R849A;H854A)
T1 sequence: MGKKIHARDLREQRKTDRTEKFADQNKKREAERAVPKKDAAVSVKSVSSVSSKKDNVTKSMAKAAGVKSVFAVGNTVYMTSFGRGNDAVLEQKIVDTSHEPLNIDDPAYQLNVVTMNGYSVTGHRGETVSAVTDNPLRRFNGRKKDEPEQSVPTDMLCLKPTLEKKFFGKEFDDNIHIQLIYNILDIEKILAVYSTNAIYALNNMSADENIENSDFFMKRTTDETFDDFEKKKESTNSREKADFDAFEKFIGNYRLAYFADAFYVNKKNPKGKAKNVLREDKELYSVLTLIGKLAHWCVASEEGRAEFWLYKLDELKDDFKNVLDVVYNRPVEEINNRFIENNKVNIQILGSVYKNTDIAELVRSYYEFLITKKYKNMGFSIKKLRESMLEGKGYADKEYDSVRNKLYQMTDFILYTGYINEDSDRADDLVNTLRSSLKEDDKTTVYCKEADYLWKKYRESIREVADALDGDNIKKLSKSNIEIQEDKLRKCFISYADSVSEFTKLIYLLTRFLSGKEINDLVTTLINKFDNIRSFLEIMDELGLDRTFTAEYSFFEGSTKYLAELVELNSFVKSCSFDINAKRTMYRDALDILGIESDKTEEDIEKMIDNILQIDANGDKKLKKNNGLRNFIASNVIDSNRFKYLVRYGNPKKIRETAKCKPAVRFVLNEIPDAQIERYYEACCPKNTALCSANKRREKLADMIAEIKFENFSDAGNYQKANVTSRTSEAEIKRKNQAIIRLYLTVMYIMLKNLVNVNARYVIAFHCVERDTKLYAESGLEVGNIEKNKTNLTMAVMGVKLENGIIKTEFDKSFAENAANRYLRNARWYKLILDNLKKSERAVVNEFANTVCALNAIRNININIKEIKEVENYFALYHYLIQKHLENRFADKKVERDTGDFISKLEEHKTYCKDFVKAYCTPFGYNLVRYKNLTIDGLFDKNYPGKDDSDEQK

B1: target 1 complement block 5-12 (mixed)
RNA 1: CACCCGUGCAAAAAUGCAGGGGUCUAAAACUGAGCGGAUAACCUCUCUAUGG
RNA 2: GGGAAUGGAUCCACAUCUACGAAUUCGUACCAUAGAGAGCAAUAGGCCUCACCGAGAUCGGAAGAGCACACGU
B2: target 1 insA 3' of 11,insC 3' of 11 (mixed)
RNA 1: B1 RNA 1
RNA 2: GGGAAUGGAUCCACAUCUACGAAUUCGUACCAUAGAGAGGUACUAUCCGCUCACCGAGAUCGGAAGAGCACACGU
B3: target 1 U10C,C21A (mixed)
RNA 1: B1 RNA 1
RNA 2: B1 RNA 2 with C31A, C40G, A41U, A42C, U43A, A44U, G45C, G46C, C47G
B4: target 1 insA 3' of 19,insC 3' of 13 (mixed)
RNA 1: B1 RNA 1
RNA 2: B2 RNA 2 with G35A, A36G, G37A, A38G, G39A, U41C, A42G, C43U
B5: target 1 insA 3' of 8,insG 3' of 2 (mixed)
RNA 1: B1 RNA 1
RNA 2: B2 RNA 2 with A42U, C43A, U46C, C48G, G49C, C50U, U51C, C52G
B6: target 1 A9U,U11G (mixed)
RNA 1: B1 RNA 1
RNA 2: B1 RNA 2 with C40G, A41G, A42U, A44U, G45C, G46C, C47G
B7: target 1 insG 3' of 21,insU 3' of 21 (mixed)
RNA 1: B1 RNA 1
RNA 2: B2 RNA 2 with A32G, G35U, G40A, U41G, A42G, C43U
B8: target 1 C7G,G13U (mixed)
RNA 1: B1 RNA 1
RNA 2: B1 RNA 2 with G39U, C40G, A41U, A42U, U43A, A44U, G46C, C47G
B9: target 1 insG 3' of 8,insG 3' of 4 (mixed)
RNA 1: B1 RNA 1
RNA 2: B2 RNA 2 with A42U, C43A, A45G, U46C, C48G, G49C, C50G
B10: target 1 insA 3' of 17,insU 3' of 17 (mixed)
RNA 1: B1 RNA 1
RNA 2: B2 RNA 2 with G37U, G40A, U41G, A42G, C43U
B11: target 1 C4A,G15A (mixed)
RNA 1: B1 RNA 1
RNA 2: GGGAAUGGAUCCACAUCUACGAAUUCGUACCAUAGAAAGGUUAUCCGAUCACCGAGAUCGGAAGAGCACACGU
B12: target 1 C4A,G13A (mixed)
RNA 1: B1 RNA 1
RNA 2: B11 RNA 2 with A37G, G39A
B13: target 1 insA 3' of 12,insU 3' of 1 (mixed)
RNA 1: B1 RNA 1
RNA 2: GGGAAUGGAUCCACAUCUACGAAUUCGUACCAUAGAGAGGAUUAUCCGCUCAUCCGAGAUCGGAAGAGCACACGU
B14: target 1 insC 3' of 5,insA 3' of 4 (mixed)
RNA 1: B1 RNA 1
RNA 2: B2 RNA 2 with A42U, C43A, A45C, U46C, C47G, G49C, C50A
B15: target 1 insA 3' of 11,insG 3' of 4 (mixed)
RNA 1: B1 RNA 1
RNA 2: B13 RNA 2 with A41U, U42A, U50G, C51U, A52C, U53A
B16: target 1 insU 3' of 22,insA 3' of 7 (mixed)
RNA 1: B1 RNA 1
RNA 2: GGGAAUGGAUCCACAUCUACGAAUUCGUACUCAUAGAGAGGUUAUCACGCUCACCGAGAUCGGAAGAGCACACGU
B17: target 1 insA 3' of 15,insG 3' of 2 (mixed)
RNA 1: B1 RNA 1
RNA 2: B13 RNA 2 with G39A, A41G, A52G, U53A
B18: target 1 U3C,U10G (mixed)
RNA 1: B1 RNA 1
RNA 2: B11 RNA 2 with A37G, U42G, A48C, U49C
B19: target 1 insC 3' of 20,insC 3' of 16 (mixed)
RNA 1: B1 RNA 1
RNA 2: GGGAAUGGAUCCACAUCUACGAAUUCGUACCACUAGACGAGGUUAUCCGCUCACCGAGAUCGGAAGAGCACACGU
B20: target 1 insU 3' of 14,insC 3' of 14 (mixed)
RNA 1: B1 RNA 1
RNA 2: B2 RNA 2 with G39U, G40C, U41G, A42G, C43U
B21: target 1 insG 3' of 7,insA 3' of 7 (mixed)
RNA 1: B1 RNA 1
RNA 2: B2 RNA 2 with A42U, C43A, A45C, U46G, C47A
B22: target 1 A1C,U11G (mixed)
RNA 1: B1 RNA 1
RNA 2: B11 RNA 2 with A37G, U41G, A48C, A51C
B23: target 1 insU 3' of 17,insC 3' of 13 (mixed)
RNA 1: B1 RNA 1
RNA 2: B2 RNA 2 with A36U, G37A, A38G, G39A, U41C, A42G, C43U
B24: target 1 insU 3' of 21,insA 3' of 17 (mixed)
RNA 1: B1 RNA 1
RNA 2: B19 RNA 2 with A32U, C33A, C38A
B25: target 1 insU 3' of 17,insG 3' of 6 (mixed)
RNA 1: B1 RNA 1
RNA 2: B16 RNA 2 with U31C, C32A, A33U, U34A, A35G, G36U, A47C, C48G
B26: target 1 G12C,A16G (mixed)
RNA 1: B1 RNA 1
RNA 2: B11 RNA 2 with A36G, A37G, G40C, A48C
B27: target 1 U10A,A14G (mixed)
RNA 1: B1 RNA 1
RNA 2: B11 RNA 2 with A37G, A38G, U42A, A48C
B28: target 1 G5U,C21U (mixed)
RNA 1: B1 RNA 1
RNA 2: B11 RNA 2 with C31U, A37G, G47U, A48C
B29: target 1 insU 3' of 18,insA 3' of 13 (mixed)
RNA 1: B1 RNA 1
RNA 2: B19 RNA 2 with C33U, U34A, A35U, C38G, G39A, A40G, G41A
B30: target 1 insU 3' of 21,insU 3' of 7 (mixed)
RNA 1: B1 RNA 1
RNA 2: B16 RNA 2 with U31C, C32U, A47U
B31: target 1 insG 3' of 22,insC 3' of 9 (mixed)
RNA 1: B1 RNA 1
RNA 2: B16 RNA 2 with U31G, U45C, C46U, A47C
B32: target 1 U11G (mixed)
RNA 1: B1 RNA 1
RNA 2: B11 RNA 2 with A37G, U41G, A48C
B33: target 1 G5A,U11G (mixed)
RNA 1: B1 RNA 1
RNA 2: B11 RNA 2 with A37G, U41G, G47A, A48C
B34: target 1 insA 3' of 6,insG 3' of 2 (mixed)
RNA 1: B1 RNA 1
RNA 2: B13 RNA 2 with A41U, U43A, A44U, U45C, C47A, A52G, U53A

Changes are numbered by the printed parent chain. Names and notes keep the numbering of the source.

The series deals with T1, EsCas13d, nuclease-dead. The series is described as follows: crRNA (strand 1, pre-loaded); Mg2+; 40 mM Tris-HCl pH 7.5, 150 mM NaCl, 6 mM MgCl2, 1 mM DTT, 0.1% Tween-20, 0.2 mg/ml BSA; 25 C; 10 min per concentration, then washed. The settings on record: tags: His6-TwinStrep-SUMO cleaved; N-terminal SNAP kept (SNAP-Surface 488); label: 3' end held by stalled T7 RNA polymerase.
For the molecule B1, the affinity, expressed as Kd, was 15.8 ± 1.5 nM. The value for B2 was 12.3 ± 0.9 nM. As for B3, the figure is 60 ± 8 nM; as for B4, 35.3 ± 3.3 nM. Consider B5, for which the Kd (usually a measure of binding affinity in units of concentration) was found to be 16.7 ± 0.8 nM. On to B6, for which the dissociation constant (Kd) was 10.1 ± 0.8 nM. As for B7, the figure is 17.1 ± 1.2 nM.

The molecule B8 gave a Kd of 54 ± 13 nM. The value for B9 was 7.1 ± 0.4 nM; that for B10 was 13.4 ± 1.2 nM; that for B11 was 20.9 ± 1.8 nM. The value for B12 was 14 ± 4 nM. Take B13: binding was put at a Kd of 37 ± 10 nM. As for B14, the figure is 13.9 ± 1.6 nM; as for B15, 9.7 ± 0.5 nM; as for B16, 21.9 ± 1.3 nM. As for B17, the figure is 6.7 ± 0.6 nM; as for B18, 26 ± 2.7 nM. As for B19, the figure is 16 ± 3 nM; as for B20, 37 ± 4 nM; as for B21, 10.5 ± 0.7 nM. Regarding B22, binding was put at a Kd of 50 ± 17 nM. With B23, the affinity, expressed as Kd, was 44 ± 9 nM. With B24, the Kd is ~100 nM. The value for B25 was 29 ± 5 nM; that for B26 was 75 ± 10 nM. B27 gave a Kd of 12.3 ± 0.5 nM. As for B28, the figure is 5.96 ± 0.31 nM; as for B29, 22.6 ± 2.4 nM.

Consider B30, for which the Kd is 54 ± 4 nM.

Regarding B31, the affinity, expressed as Kd, was 26.3 ± 1.6 nM.

Consider B32, for which the Kd was determined as 22.4 ± 1.2 nM. As to B33, the Kd worked out at 51 ± 5 nM. The value for B34 was 27 ± 5 nM.
